Measured values as given in patent US11485776B2, “Antibodies against infectious diseases” (priority 2015, dated 2022).
“Also recorded” adds a separate entry of the source.

Legend:
[1] = molecular target: T1, binding of surface ENO1 of C. albicans to plasminogen (Candida albicans, UniProt P30575); experiment: Fibrin matrix-gel degradation analysis with C. albicans cells; format: cell-based; conditions: for Binding of CaENO1 to plasminogen: fibrin matrix-gel degradation analysis, C. albicans cells
T1 construct: endogenous in cells; host or cells: C. albicans cells
Description: The ability of CaS1 scFv to block the binding of CaENO1 with plasminogen was evaluated by fibrin matrix-gel degradation analysis. Various samples containing C. albicans only (1), C. albicans+1 ug of plasminogen (2) or C. albicans+10 ug of plasminogen (3) were spotted on the plate. Similar experiments were carried out except C. albicans were mixed first with 10 ug (4) or 100 ug (5) of CaS1 scFv, followed by the addition of 10 ug of plasminogen. C. albicans+CaS1 scFv without plasminogen (6) were spotted as a negative control.
The matrix gel was prepared for fibrinolysis activity detection^33. C. albicans (10^6 cells) were washed and incubated with or without CaS1scFv ([…]) at 37° C. for 1 hr. After incubation, cells were washed and incubated with plasminogen (10 μg) for 30 min. The mixtures were washed with PBS to remove free plasminogen. The resulting cell pellets were placed in a matrix gel that contained 1.25% low-melting-temperature agarose, thrombin (0.05 U/ml, Sigma) and fibrinogen (2 mg/ml, Sigma). The gel was incubated in a humidified chamber at 37° C. for 10-14 hrs until the appearance of clear spots indicated the presence of fibrinolysis activity.
It is well known that surface ENO1 act as a plasminogen receptor 32, binding to plasminogen will activate it to plasmin and leading to the degradation of the fibrinogen (extracellular matrix) containing in the gel. We performed matrix-gel studies to test the possible biological significance of CaENO1-plasminogen association and the effect of CaS1 scFv on this binding was observed.
The inhibition of the degradation of the fibrinogen in the gel is obvious.

[2] = tested on: ENO1 proteins on Candida spp. (C. glabrate); format: binding
Text: (§1) (A) The total cell lysates of 5 Candida spp. were visualized on SDS-PAGE (left). After transferred onto the NC membranes, they were probed with purified anti-CaENO1 from 7th immunized chicken (1:3,000) (middle), or with CaS1 scFv (right) as described in material and methods. Lanes 1-6 in (A) contained the total cell lysates of C. albicans, C. krusei, C. tropicalis, C. parapsilosis and C. glabrate and purified recombinant CaENO1, respectively. […] (C) Total cell lysate from FLU^R and FLU^s and C. tropicalis (lanes 1-5 represent CT6-29, CT11-52, CT6-50, CT12-54, BCRC20520, respectively) by SDS-PAGE (left) and probed with CaS1 scFv by Western blot (right). (D) The purified ENO1 proteins of C. albicans, S. pneumonia, S. aureus, mouse and human were visualized on SDS-PAGE (left). After transferred onto the NC membranes, they were probed with purified CaS1 scFv (right) as described. Lane M contained protein markers.
(§2) To detect the presence of ENO1 proteins, the purified recombinant ENO1 protein or cell lysates of five Candida spp were subjected to SDS-PAGE analysis, transferred onto nitrocellulose membranes (Amersham Biosciences, UK) and then blocked with 5% skim milk in TBST for 1 hr. The anti-CaENO1 IgY from chicken after 7th immunization (1:3,000) or purified CaS1 scFv antibody (1 μg/ml) were added and incubated for 1 hr at room temperature. After vigorous washings, horseradish peroxidase (HRP)-conjugated polyclonal donkey anti-chicken IgY antibodies (1:3,000) (Bethyl Laboratories, Montgomery, Tex., USA) were added and incubated for an additional 1 hr for detecting the bound IgY antibodies. However, goat anti-chicken light chain antibodies (1:3,000) (Bethyl Laboratories, Montgomery, Tex., USA), followed by HRP-conjugated donkey anti-goat IgG antibodies (Jackson ImmunoResearch, USA) were used for detecting the bound scFv antibodies. After washings as above, the membranes were developed with diaminobenzidine (DAB) or ECL substrate. The ImageQuant LAS4500 was used for ECL intensity detection.
(§3) This CaS1 scFv was evaluated for its binding activity to different species of Candida. Five common strains of Candida were obtained, total lysate of five species Candida were analyzed on SDS-PAGE (FIG. 6A left) and subsequent Western blot.

[3] = tested on: ENO1 proteins on Candida spp. (C. tropicalis); format: binding
Text: as §1, §2, §3

[4] = tested on: ENO1 proteins on Candida spp. (C. parapsilosis); format: binding
Text: as §1, §2, §3

[5] = tested on: ENO1 proteins on Candida spp. (C. krusei); format: binding
Text: as §1, §2, §3

CaENO1 = molecular target: T2, CaENO1 (Candida albicans, UniProt P30575); experiment: Western blot on purified ENO1 protein of C. albicans; format: binding
T2 construct: using full-length CaENO1 (1323 bp) as template; His (N); made in house; host or cells: E. coli BL21
Text: as §1
Briefly, C. albicans alpha-enolase genes were constructed in pQE30 plasmids to form pQE30-CaENO1 vector, and then the resulting vectors were transformed with E. coli BL21 cells. The bacterial culture was grown in 10 ml LB medium containing ampicillin ([…]) at 37° C. overnight, diluted 10-fold in the same LB medium and further grown until the OD600 reached between 0.6 and 1.0. […]

hENO1 = molecular target: T3, hENO1 (Homo sapiens, UniProt P06733); experiment: Western blot on purified human ENO1 protein; format: binding
T3 construct: His; made in house; host or cells: E. coli BL21 (by 'in the same way')
Text: Lane M contained protein markers.
The ImageQuant LAS4500 was used for ECL intensity detection.

T1 sequence (P30575 whole entry): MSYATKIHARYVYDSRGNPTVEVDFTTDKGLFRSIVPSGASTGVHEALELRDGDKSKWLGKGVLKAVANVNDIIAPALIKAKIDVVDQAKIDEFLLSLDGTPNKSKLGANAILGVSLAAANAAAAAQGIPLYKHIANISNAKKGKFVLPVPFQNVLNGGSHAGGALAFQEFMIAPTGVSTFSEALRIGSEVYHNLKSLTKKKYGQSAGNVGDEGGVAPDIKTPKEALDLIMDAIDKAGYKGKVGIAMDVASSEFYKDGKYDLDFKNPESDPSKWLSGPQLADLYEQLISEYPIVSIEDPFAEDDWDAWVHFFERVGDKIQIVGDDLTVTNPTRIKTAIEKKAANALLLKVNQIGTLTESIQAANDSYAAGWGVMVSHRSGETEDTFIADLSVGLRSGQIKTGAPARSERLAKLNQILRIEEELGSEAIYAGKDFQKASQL
T2 sequence (P30575 whole entry): as above
T3 sequence (P06733 whole entry): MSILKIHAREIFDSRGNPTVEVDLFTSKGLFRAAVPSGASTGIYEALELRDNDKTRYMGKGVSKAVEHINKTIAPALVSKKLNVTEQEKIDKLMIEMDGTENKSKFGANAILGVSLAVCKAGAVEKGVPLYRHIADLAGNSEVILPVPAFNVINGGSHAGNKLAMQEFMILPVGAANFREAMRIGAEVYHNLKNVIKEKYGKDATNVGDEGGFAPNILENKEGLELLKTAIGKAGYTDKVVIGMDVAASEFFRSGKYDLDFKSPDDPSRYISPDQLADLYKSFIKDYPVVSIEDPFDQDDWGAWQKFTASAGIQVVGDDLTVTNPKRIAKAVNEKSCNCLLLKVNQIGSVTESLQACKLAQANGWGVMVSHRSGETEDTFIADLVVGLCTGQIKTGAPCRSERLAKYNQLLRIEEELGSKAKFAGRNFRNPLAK

B1: CaS1 scFv: anti-CaENO1 scFv monoclonal antibody from chicken phage library; light chain SEQ ID NO:11, heavy chain SEQ ID NO:12 (antibody, V domains shown)
VH: TVTLDESGGGLQTPRGALSLVCKASGFTFIDYGMQWVRQAPGKGLEWVAGIGSSGSSTNYGAAVKGRATISRDDGQSTVRLQLNNLRAEDTGTYYCAKSAGGYCVNGAGCNGGSIDAWGHGTEVIVSS
VL: ALTQPSSVSANLGGTVKITCSGGSGSYGWYQQKSPGSAPVTVIYSNNQRPSNIPSRFSGSPSGSTGTLTITGVQADDEAVYFCGSRDSSYVGVFGAGTTLTVL
modifications: scFv linker; amino acid sequence comprised in a heavy chain of an anti-CaENO1 scFv monoclonal antibody (CaS1); amino acid sequence comprised in a light chain of an anti-CaENO1 scFv monoclonal antibody (CaS1)
Fibrinolytic activity of C. albicans with plasminogen ([1]; C. albicans pre-incubated with 10 ug or 100 ug, then 10 ug plasminogen): significantly inhibited | Fibrinolysis activity in the absence of plasminogen ([1]; C. albicans+CaS1 scFv without plasminogen): no fibrinolysis activity | Binding of CaENO1 to plasminogen [1]: significantly reduced | Binding of CaENO1 to plasminogen ([1]; listed as CaS1): significantly inhibited | Binding to ENO1 in total cell lysate of C. glabrate (Western blot) [2]: cannot react | Binding to fluconazole resistance and susceptible C. glabrate from clinic (Western blot) [2]: not | Binding to ENO1 in total cell lysate of C. tropicalis (Western blot) [3]: specifically recognized; also recorded: reacted | Binding to fluconazole resistance and susceptible C. tropicalis from clinic (Western blot) [3]: binds; also recorded: can bind | Binding to ENO1 in total cell lysate of C. parapsilosis (Western blot) [4]: cannot react | Binding to fluconazole resistance and susceptible C. parapsilosis from clinic (Western blot) [4]: not | Binding to ENO1 in total cell lysate of C. krusei (Western blot) [5]: cannot react | Binding to purified CaENO1 (Western blot) (CaENO1): bind and recognizes | Binding to purified hENO1 (Western blot) (hENO1): very little; also recorded: weak cross reactivity
